Data from patent US20250282887A1 (Amgen, published 2025).
Changes are numbered by the printed parent chain.

T1: human MAGEB18 (human, UniProt Q96M61 1-343)
T1 construct: whole, on cells; FFPE cell pellets; also called MAGE-18
T1 sequence (looked up): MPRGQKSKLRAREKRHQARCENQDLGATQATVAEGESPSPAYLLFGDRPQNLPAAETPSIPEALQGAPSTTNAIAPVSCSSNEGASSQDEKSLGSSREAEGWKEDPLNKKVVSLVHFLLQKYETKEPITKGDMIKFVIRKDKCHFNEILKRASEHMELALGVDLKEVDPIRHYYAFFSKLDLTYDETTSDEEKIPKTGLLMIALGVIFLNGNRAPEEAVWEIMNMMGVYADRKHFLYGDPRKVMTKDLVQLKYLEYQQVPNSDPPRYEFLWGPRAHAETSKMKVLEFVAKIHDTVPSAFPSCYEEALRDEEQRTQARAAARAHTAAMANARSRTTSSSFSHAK

T2: human MAGEA8 (human, UniProt P43361 1-318)
T2 construct: whole, on cells; FFPE cell pellets
T2 sequence (looked up): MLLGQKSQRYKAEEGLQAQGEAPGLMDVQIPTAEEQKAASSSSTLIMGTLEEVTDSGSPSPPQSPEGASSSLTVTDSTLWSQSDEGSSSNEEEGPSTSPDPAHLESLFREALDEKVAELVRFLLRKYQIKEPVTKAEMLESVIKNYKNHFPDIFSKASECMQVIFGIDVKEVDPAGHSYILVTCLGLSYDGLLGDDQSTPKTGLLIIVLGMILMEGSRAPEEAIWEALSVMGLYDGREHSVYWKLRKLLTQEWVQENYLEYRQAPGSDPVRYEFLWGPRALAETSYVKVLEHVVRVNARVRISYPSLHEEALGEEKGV

B1: 1I14 (antibody, V domains shown)
VH: QSVEESGGRLVTPGTPLTLTCTISGFSLSSYAMSWVRQAPGKGLEWIGSIGGGGSAVYASWAKGRFTISKTSTTVDLRITSPTTEDTAMYFCGRGFYSIDLWGPGTLVTVSS
VL: DVVMTQTPASVEATVGGTVTIKCQSSQSVYDNNALAWYQQNAGQRPRLLIYGASTLASGVPSRFSASGSGTEFTLTISDLECADAATYYCQCTYYVSSYQNDFGGGTEVVVKG
notes: also called MAGE-B2 (1i14)
B2: 1C3 (antibody, V domains shown)
VH: QSLEESGGGLVQPEGSLTLTCTAFGVTLTNYYICWVRQAPGKGLEWVGCIDNANGRTYYASWAKGRFTISKTSSTTGTLQMTSLTAADTATYFCARSLATPLWGPGTLVTVSS
VL: DIVMTQTPSSVEAAVGGTVTIKCQASQNISSYLAWYQQKPGQPPKLLIYRASTLASGVPSRFKGSGSGTQFTLTISDLECADAATYYCQSYDDSRSSNFFYAFGGGTEVVVKG
notes: also called MAGE-B2 (IC3); anti-MAGEB2 antibody 1C3
B3: 4G17 (antibody, IgG1, V domains shown)
VH: B2 VH with F24S, T29S, V47I, A53V
VL: DIVMTQTPASVEAAVGGTVTIKCQASQNIDSYLAWYQQKPGQPPKLLIYRASTLASGVPSRFKGSGSGTEFTLTISDLECADAATYYCQSYDDSRSSSFFYGFGGGTEVVVK
notes: Rabbit monoclonal IgG1; Tested as supernatant and as small batch purified antibody; also called MAGE-B2 (4G17); anti-MAGEB2 antibody 4G17
B4: 1J15 (antibody, IgG1, V domains shown)
VH: B2 VH with V26F, T29N, V47I, G48A, G77V, A99S
VL: B3 VL with N28S, D30S, A34S, K63R, E70Q, R95S, S96D, S97N, S98N, K112R
notes: Rabbit monoclonal IgG1; Tested as supernatant and as small batch purified antibody; also called MAGE-B2 (IJ15); anti-MAGEB2 antibody 1J15

target: T1, human MAGEB18; experiment: IHC, FFPE CHO cells transfected with human MAGEB18
Method: (§1) FFPE samples were sectioned at 4 μm and mounted on positive charged glass slides. After mounting, paraffin sections were air-dried at room temperature. FFPE TMA samples were received as freshly sectioned and mounted on glass slides. The fully automated IHC assay was performed on a Discovery Ultra Stainer (Ventana Medical Systems, Tucson, AZ) using Ventana Anti-Rabbit HQ (cat #760-4815), Ventana Anti-HQ HRP (cat #760-4820), and Ventana Antibody Diluent with Casein (cat #760-219) (Ventana Medical Systems, Tucson, AZ). The slides were baked on the Discovery Ultra Stainer at 60° C. for 8 minutes, de-paraffinized with Ventana Discovery wash (cat #950-510) for 3 cycles (8 minutes each) at 69° C., and underwent cell conditioning (target retrieval) at 95° C. for 16 minutes (for cell arrays) or 32 minutes (tissues or TMAs) in CC1 buffer (cat #950-500). Following this, slides were incubated with Background Sniper (cat #BS966M, Biocare Medical, Pacheco, CA) in a Ventana Option Prep kit (cat #771-751) for 28 minutes, incubated with CM inhibitor (a part of the Ventana DAB kit cat #760-159) for 12 minutes, and incubated for 1 h at RT with MAGE-B2 antibody diluted with Ventana diluent with Casein in a Ventana Prep kit (cat #770-001) (working concentration at 0.1 μg/ml for cell pellet, or 1-5 ug/ml for tissues) or with a matched concentration of isotype control Rabbit IgG1 antibody. Following this, slides were incubated with the Ventana Anti-Rabbit HQ (cat #760-4815) for 28 minutes at RT, Ventana Anti-HQ HRP (cat #760-4820) for 28 minutes at RT, and signals detected with Ventana DAB chromogen kit (cat #760-159) for 5 minutes at RT. Slides were counterstained with Ventana Hematoxylin II (cat #5266726001) for 8 minutes and Ventana Bluing reagent (cat #526676900) for 4 minutes. Slides were coverslipped and digitized using an Aperio AT2 scanner (Leica Biosystems Inc, Buffalo Grove, IL).

Binding result, no binding (tested: 0.1 µg/ml):
B1
B2
B3
B4

target: T2, human MAGEA8; experiment: IHC, FFPE CHO cells transfected with human MAGEA8
Excerpt: Negative control cells included parental Chinese hamster ovary (CHO) cells, CHO cells stably transfected with mCherry Vector Control (minus Myc/DDK tags), CHO cells stably transfected with mCherry-human DCAF4L2 (plus Myc/DDK tags). The cross-reactivity control cells included CHO cells transfected with mCherry Vector Control (plus Myc/DDK tags) with one of the human MAGE-B or MAGE-A family members (MAGEA1, MAGEA2, MAGEA3, MAGEA4, MAGEA5, MAGEA6, MAGEA8, MAGEA9, MAGEA11, MAGEA12, MAGEB1, MAGEB3, MAGEB4, MAGEB5, MAGEB6, MAGEB10, MAGEB16, MAGEB17, MAGEB18). Positive control cell lines included CHO cells transfected with mCherry Vector (plus Myc/DDK tags) with human MAGE-B2 or CHO cells transfected with mCherry Vector (open reading frame (ORF); minus Myc/DDK tags) with human MAGEB2, and thirteen human cancer cell lines with known endogenous RNA expression level of MAGEB2 (U266B1, T98G, KMM-1, U20S, CFPAC-1, SCaBER, UACC-257, CFPAC-1, VMRC-LCD, NCI-H1703, UM-UC-3, NCI-H1395, NCIH82).
as §1, with “antibody.” for “antibody. Following this, slides were incubated with the Ventana Anti-Rabbit HQ (cat #760-4815) for 28 minutes at RT, Ventana Anti-HQ HRP (cat #760-4820) for 28 minutes at RT, and signals detected with Ventana DAB chromogen kit (cat #760-159) for 5 minutes at RT. Slides were counterstained with Ventana Hematoxylin II (cat #5266726001) for 8 minutes and Ventana Bluing reagent (cat #526676900) for 4 minutes. Slides were coverslipped and digitized using an Aperio AT2 scanner (Leica Biosystems Inc, Buffalo Grove, IL).”

Binding result, no binding (tested: 0.1 µg/ml):
B1
B2
B3
B4
